In US20250333515A1:

Molecular target: biotinylated recombinant human CLL-1 extracellular domain protein, isoform with lysine at amino acid position 244 (human) (UniProt Q5QGZ9)
Test: Exp 1 (= Octet, CLL-1-K244 of FIG. 12B); Exp 2: ND

biotinylated recombinant human CLL-1 extracellular domain protein, isoform with lysine at amino acid position 244 (human), sequence (Q5QGZ9 65-265): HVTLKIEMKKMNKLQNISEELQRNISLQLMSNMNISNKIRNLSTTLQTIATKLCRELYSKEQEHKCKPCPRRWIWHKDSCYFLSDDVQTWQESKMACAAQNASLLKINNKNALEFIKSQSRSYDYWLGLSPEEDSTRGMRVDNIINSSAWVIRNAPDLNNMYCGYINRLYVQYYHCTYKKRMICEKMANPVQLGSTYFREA

## + Control
  Kd: 127 pM
